The text below walks through data of the supplement of paper PMC7125110.

For orientation: kcat means the number of substrate molecules converted per active site and unit of time at saturation. One may read the KM as the concentration of substrate that gives half-maximal velocity.

B1: glmS ribozyme (parent)
chain: AUAAAAGCGCCAGAACUACAGAAAUGUAGUUGACGAGGAGGAGGUUUAUCGAAUUUUCGGCGGAUGCCUCCAAA

± gives the standard error. For some of these results: This sample holds only a part of the variants without activity.

Common to all, as to conditions: with glucosamine-6-phosphate
The variants in data set [1] derive from B1. The data set is described as follows: kcat; higher = faster cleavage; RNA array. The method, boiled down: (§1)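 Tiles of sequenced MiSeq chips were imaged over ~14 h at 37 °C. On them, barcoded ribozyme variants had been transcribed in situ by E. coli RNA polymerase and were tracked via a hybridised Cy3 probe while glucosamine-6-phosphate (40 μM to 10 mM) in HEPES/KCl/Mg(OAc)2 buffer flowed in. Per-tile medians, normalised to baseline and to non-cleaving reference variants, were fit to one- or two-exponential decays for kobs, and weighted Michaelis–Menten fits gave kcat and KM.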

The variants in data set [2] derive from B1. Kind of data set: KM; higher = weaker cofactor use; RNA array. The method, boiled down: as §1
The variants in data set [3] derive from B1. Kind of data set: self-cleavage kobs at 160 uM GlcN6P; higher = faster cleavage; RNA array. An outline of the steps: as §1
Variants of B1 are the subject of data set [4]. The data set is described as follows: self-cleavage kobs at 640 uM GlcN6P; higher = faster cleavage; RNA array. An outline of the steps:
as §1

Data set [5] covers variants of B1. The data set is described as follows: self-cleavage kobs at 2500 uM GlcN6P; higher = faster cleavage; RNA array. The method, boiled down: as §1
The variants in data set [6] derive from B1. The data set is described as follows: self-cleavage kobs at 10000 uM GlcN6P; higher = faster cleavage; RNA array. The method, boiled down: as §1
The variants in data set [7] derive from B1. The data set is described as follows: self-cleavage kobs at 40 uM GlcN6P; higher = faster cleavage; RNA array. An outline of the steps: as §1

Turning to G29C U56G, the kcat in the data set with glucosamine-6-phosphate [1] was determined as 0.00345 ± 0.0011 s⁻¹. Also, in the data set with glucosamine-6-phosphate [2], the KM worked out at 6770 ± 2600 µM. For the same variant, the “self-cleavage kobs at 160 uM GlcN6P” value with glucosamine-6-phosphate [3] is 7.08e-05 ± 1.4e-05 s⁻¹. In addition, the “self-cleavage kobs at 640 uM GlcN6P” value with glucosamine-6-phosphate [4] was 0.000321 ± 6e-05 s⁻¹. The “self-cleavage kobs at 2500 uM GlcN6P” value in the data set with glucosamine-6-phosphate [5] worked out at 0.00115 ± 0.00022 s⁻¹. The “self-cleavage kobs at 10000 uM GlcN6P” value with glucosamine-6-phosphate [6] came to 0.00181 ± 0.00049 s⁻¹.

On to A39G A64G, for which the kcat with glucosamine-6-phosphate [1] worked out at 0.127 ± 0.027 s⁻¹. Also, the KM with glucosamine-6-phosphate [2] is 5960 ± 1400 µM. The “self-cleavage kobs at 40 uM GlcN6P” value with glucosamine-6-phosphate [7] amounted to 0.000853 ± 0.00016 s⁻¹. Also, the “self-cleavage kobs at 160 uM GlcN6P” value with glucosamine-6-phosphate [3] is 0.00322 ± 0.00052 s⁻¹. Moreover, in the data set with glucosamine-6-phosphate [4], the “self-cleavage kobs at 640 uM GlcN6P” value was 0.0131 ± 0.0018 s⁻¹. In the data set with glucosamine-6-phosphate [5], the “self-cleavage kobs at 2500 uM GlcN6P” value was 0.0328 ± 0.0078 s⁻¹. Further, the “self-cleavage kobs at 10000 uM GlcN6P” value with glucosamine-6-phosphate [6] was 0.0876 ± 0.026 s⁻¹.

Take A48U A64U: in the data set with glucosamine-6-phosphate [1], the kcat was determined as 0.000129 ± 1.1e-05 s⁻¹. For the same variant, the Michaelis constant (KM) with glucosamine-6-phosphate [2] was determined as 5510 ± 1000 µM. Besides, the “self-cleavage kobs at 2500 uM GlcN6P” value with glucosamine-6-phosphate [5] is 4.13e-05 ± 1.2e-05 s⁻¹. The “self-cleavage kobs at 10000 uM GlcN6P” value with glucosamine-6-phosphate [6] is 8.33e-05 ± 1.3e-05 s⁻¹.

In the case of U49A U55G, the kcat with glucosamine-6-phosphate [1] was determined as 1.38e-05 ± 6.5e-06 s⁻¹.

As for A6U G59A, the kcat with glucosamine-6-phosphate [1] is under 1e-05 s⁻¹. In addition, the “self-cleavage kobs at 40 uM GlcN6P” value with glucosamine-6-phosphate [7] is under 1e-05 s⁻¹. Also, in the data set with glucosamine-6-phosphate [4], the “self-cleavage kobs at 640 uM GlcN6P” value is under 1e-05 s⁻¹.

On to U57G C58G C68U, for which the kcat with glucosamine-6-phosphate [1] came to 4.52e-05 ± 1.6e-05 s⁻¹. Moreover, the “self-cleavage kobs at 640 uM GlcN6P” value in the data set with glucosamine-6-phosphate [4] is 7.15e-05 ± 2.1e-05 s⁻¹.

Turning to A14U A33U, the kcat in the data set with glucosamine-6-phosphate [1] is 0.000182 ± 2.6e-05 s⁻¹. For the same variant, the “self-cleavage kobs at 2500 uM GlcN6P” value with glucosamine-6-phosphate [5] amounted to 2.81e-05 ± 1e-05 s⁻¹. In addition, in the data set with glucosamine-6-phosphate [6], the “self-cleavage kobs at 10000 uM GlcN6P” value was found to be 7.63e-05 ± 9.8e-06 s⁻¹.

In the case of U31G G59A, the kcat in the data set with glucosamine-6-phosphate [1] came to 0.000131 ± 8.6e-06 s⁻¹. In addition, the “self-cleavage kobs at 40 uM GlcN6P” value in the data set with glucosamine-6-phosphate [7] is under 1e-05 s⁻¹. The “self-cleavage kobs at 10000 uM GlcN6P” value with glucosamine-6-phosphate [6] is 4.18e-05 ± 1.3e-05 s⁻¹.

For U30C G32U, the kcat in the data set with glucosamine-6-phosphate [1] turned out to be 0.000492 ± 0.00011 s⁻¹. The KM in the data set with glucosamine-6-phosphate [2] was found to be 3230 ± 1300 µM. The “self-cleavage kobs at 640 uM GlcN6P” value in the data set with glucosamine-6-phosphate [4] was 9.97e-05 ± 1.7e-05 s⁻¹. Moreover, the “self-cleavage kobs at 2500 uM GlcN6P” value with glucosamine-6-phosphate [5] was determined as 0.000183 ± 2.9e-05 s⁻¹. The “self-cleavage kobs at 10000 uM GlcN6P” value in the data set with glucosamine-6-phosphate [6] worked out at 0.000403 ± 5.7e-05 s⁻¹.

Regarding A39G A42U, in the data set with glucosamine-6-phosphate [1], the kcat came out at 0.000818 ± 0.00016 s⁻¹. Further, the KM with glucosamine-6-phosphate [2] amounted to 1510 ± 540 µM. Besides, in the data set with glucosamine-6-phosphate [7], the “self-cleavage kobs at 40 uM GlcN6P” value came out at 4.94e-05 ± 1.9e-05 s⁻¹. Besides, in the data set with glucosamine-6-phosphate [3], the “self-cleavage kobs at 160 uM GlcN6P” value amounted to 7.49e-05 ± 2.2e-05 s⁻¹. The “self-cleavage kobs at 640 uM GlcN6P” value with glucosamine-6-phosphate [4] is 0.00023 ± 5.4e-05 s⁻¹. Besides, the “self-cleavage kobs at 2500 uM GlcN6P” value with glucosamine-6-phosphate [5] was determined as 0.00045 ± 0.00014 s⁻¹. In addition, the “self-cleavage kobs at 10000 uM GlcN6P” value with glucosamine-6-phosphate [6] was 0.000751 ± 0.00014 s⁻¹.

A53G U56A: the kcat with glucosamine-6-phosphate [1] came out at 0.0133 ± 0.0047 s⁻¹. For the same variant, the KM with glucosamine-6-phosphate [2] came out at 1830 ± 890 µM. For the same variant, the “self-cleavage kobs at 40 uM GlcN6P” value with glucosamine-6-phosphate [7] amounted to 0.000437 ± 9e-05 s⁻¹. Further, in the data set with glucosamine-6-phosphate [3], the “self-cleavage kobs at 160 uM GlcN6P” value stood at 0.00116 ± 0.00021 s⁻¹. In the data set with glucosamine-6-phosphate [4], the “self-cleavage kobs at 640 uM GlcN6P” value was found to be 0.00273 ± 0.00051 s⁻¹. In addition, in the data set with glucosamine-6-phosphate [5], the “self-cleavage kobs at 2500 uM GlcN6P” value came out at 0.00663 ± 0.0019 s⁻¹. For the same variant, the “self-cleavage kobs at 10000 uM GlcN6P” value with glucosamine-6-phosphate [6] was found to be 0.0137 ± 0.0026 s⁻¹.

Turning to A15U U30C, the kcat with glucosamine-6-phosphate [1] was 0.000145 ± 1.2e-05 s⁻¹. For the same variant, the KM in the data set with glucosamine-6-phosphate [2] stood at 2410 ± 450 µM. In addition, the “self-cleavage kobs at 640 uM GlcN6P” value with glucosamine-6-phosphate [4] stood at 3.48e-05 ± 6.3e-06 s⁻¹. For the same variant, the “self-cleavage kobs at 2500 uM GlcN6P” value with glucosamine-6-phosphate [5] was 6.99e-05 ± 6.6e-06 s⁻¹. Also, the “self-cleavage kobs at 10000 uM GlcN6P” value with glucosamine-6-phosphate [6] is 0.00012 ± 1.1e-05 s⁻¹.

With A12C U46G, the kcat with glucosamine-6-phosphate [1] was 0.00332 ± 0.00078 s⁻¹. Also, in the data set with glucosamine-6-phosphate [2], the KM worked out at 1950 ± 600 µM. For the same variant, the “self-cleavage kobs at 40 uM GlcN6P” value in the data set with glucosamine-6-phosphate [7] amounted to 8.74e-05 ± 1.3e-05 s⁻¹. In addition, the “self-cleavage kobs at 160 uM GlcN6P” value with glucosamine-6-phosphate [3] was 0.000221 ± 3.6e-05 s⁻¹. For the same variant, the “self-cleavage kobs at 640 uM GlcN6P” value with glucosamine-6-phosphate [4] came to 0.000761 ± 0.00012 s⁻¹. Further, the “self-cleavage kobs at 2500 uM GlcN6P” value with glucosamine-6-phosphate [5] was 0.002 ± 0.00032 s⁻¹. Further, in the data set with glucosamine-6-phosphate [6], the “self-cleavage kobs at 10000 uM GlcN6P” value is 0.00278 ± 0.00064 s⁻¹.

As to C67U U69C, the kcat with glucosamine-6-phosphate [1] was found to be 0.000129 ± 6e-05 s⁻¹. The “self-cleavage kobs at 160 uM GlcN6P” value in the data set with glucosamine-6-phosphate [3] turned out to be 4.3e-05 ± 2.1e-05 s⁻¹. Also, the “self-cleavage kobs at 640 uM GlcN6P” value with glucosamine-6-phosphate [4] came to 0.000113 ± 2e-05 s⁻¹. For the same variant, the “self-cleavage kobs at 2500 uM GlcN6P” value with glucosamine-6-phosphate [5] came to 4.99e-05 ± 2.3e-05 s⁻¹. In addition, in the data set with glucosamine-6-phosphate [6], the “self-cleavage kobs at 10000 uM GlcN6P” value stood at 0.000226 ± 3.7e-05 s⁻¹.

Consider C50A C68A, for which the kcat with glucosamine-6-phosphate [1] was 3.68e-05 ± 1.1e-05 s⁻¹. Besides, the “self-cleavage kobs at 160 uM GlcN6P” value with glucosamine-6-phosphate [3] came out at 3.75e-05 ± 1.4e-05 s⁻¹. The “self-cleavage kobs at 2500 uM GlcN6P” value with glucosamine-6-phosphate [5] is 4.65e-05 ± 1.7e-05 s⁻¹.

For the variant C58G G60U, the kcat with glucosamine-6-phosphate [1] was under 1e-05 s⁻¹. Also, the “self-cleavage kobs at 40 uM GlcN6P” value in the data set with glucosamine-6-phosphate [7] was under 1e-05 s⁻¹. The “self-cleavage kobs at 160 uM GlcN6P” value with glucosamine-6-phosphate [3] was under 1e-05 s⁻¹. Further, the “self-cleavage kobs at 640 uM GlcN6P” value with glucosamine-6-phosphate [4] is under 1e-05 s⁻¹. In addition, in the data set with glucosamine-6-phosphate [5], the “self-cleavage kobs at 2500 uM GlcN6P” value is under 1e-05 s⁻¹.
